Assay results reported in PMC6510601.

Target: hepatitis B virus (HBV) truncated core protein Cp149 dimer (hepatitis B virus)
Test: resistive-pulse sensing

Question: “hepatitis B virus (HBV) truncated core protein Cp149 dimer (domain or fragment)” was tested. Which stoichiometry N did it give?
Answer: Its stoichiometry N is 90 dimers.
